Assay results reported in PMC5715112.

Tests used:
[1] = biological target: HIV integrase fused to the VP16 activation domain (pEF-VP16, CHO cells); test: mammalian two-hybrid luciferase reporter assay in CHO cells; conditions: 48 h after transfection; Firefly luciferase normalised to Renilla; parent: est. 1.4; read off a plot
[2] = biological target: GAL4 DNA binding domain (DBD)-LEDGF IBD fusion (pM1, CHO cells); test: two-hybrid; mammalian three-hybrid competition in CHO cells: GAL4 DBD-IBD bait, HIV IN-VP16 prey and a free competitor from pEF-BOS-cyto; Firefly/Renilla luciferase

| Substance | response [1] | percent inhibition of the luciferase signal of HIV IN-VP16 with Gal4-IBD [2] [%] |
| --- | --- | --- |
| GAL4 DNA binding domain (DBD)-LEDGF IBD fusion (pM1, CHO cells) D366A | 0.02 |  |
| GAL4 DNA binding domain (DBD)-LEDGF IBD fusion (pM1, CHO cells) F406A | 0.04 |  |
| GAL4 DNA binding domain (DBD)-LEDGF IBD fusion (pM1, CHO cells) I365A | 0.02 |  |
| GAL4 DNA binding domain (DBD)-LEDGF IBD fusion (pM1, CHO cells) K364A | 0.08 |  |
| GAL4 DNA binding domain (DBD)-LEDGF IBD fusion (pM1, CHO cells) K402A | 0.6 |  |
| GAL4 DNA binding domain (DBD)-LEDGF IBD fusion (pM1, CHO cells) K407A | 3.3 |  |
| GAL4 DNA binding domain (DBD)-LEDGF IBD fusion (pM1, CHO cells) L363A | 0.25 |  |
| GAL4 DNA binding domain (DBD)-LEDGF IBD fusion (pM1, CHO cells) L368A | 0.01 |  |
| GAL4 DNA binding domain (DBD)-LEDGF IBD fusion (pM1, CHO cells) R405A | 1.3 |  |
| GAL4 DNA binding domain (DBD)-LEDGF IBD fusion (pM1, CHO cells) V408A | 0.4 |  |
| free HIV IN (competitor, pEF-BOS-cyto, CHO cells) (enzyme) |  | 90 |
